For the assay, the target named is phenylalanine and glycine rich nucleoporins (FG-Nups). In words: cell-based or functional assay.

Among the data in patent US20240226230A1 are cells in which the accumulation of TDP-43 and Nup62 in cytoplasmic GR aggregates is abolished values, retold here.

For the substance “FLAG-KPNB1 H1-8^WT (from UniProt Q14974 1-361)”, the cells in which the accumulation of TDP-43 and Nup62 in cytoplasmic GR aggregates is abolished is 60 % of cells.
